Numbering of substitutions follows the chain as printed.
What was measured:
Assay in all cases: SPR, antibody captured, C2 as analyte;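 further: biacore SPR at 37 °C, anti-C2 mAbs captured via goat anti-human IgG on CM5 chips, double-referenced sensorgrams fit to a 1:1 kinetic or steady-state model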
human C2 V722A = biological target: T1, human C2 V722A (human, UniProt P06681 21-752)
T1 sequence: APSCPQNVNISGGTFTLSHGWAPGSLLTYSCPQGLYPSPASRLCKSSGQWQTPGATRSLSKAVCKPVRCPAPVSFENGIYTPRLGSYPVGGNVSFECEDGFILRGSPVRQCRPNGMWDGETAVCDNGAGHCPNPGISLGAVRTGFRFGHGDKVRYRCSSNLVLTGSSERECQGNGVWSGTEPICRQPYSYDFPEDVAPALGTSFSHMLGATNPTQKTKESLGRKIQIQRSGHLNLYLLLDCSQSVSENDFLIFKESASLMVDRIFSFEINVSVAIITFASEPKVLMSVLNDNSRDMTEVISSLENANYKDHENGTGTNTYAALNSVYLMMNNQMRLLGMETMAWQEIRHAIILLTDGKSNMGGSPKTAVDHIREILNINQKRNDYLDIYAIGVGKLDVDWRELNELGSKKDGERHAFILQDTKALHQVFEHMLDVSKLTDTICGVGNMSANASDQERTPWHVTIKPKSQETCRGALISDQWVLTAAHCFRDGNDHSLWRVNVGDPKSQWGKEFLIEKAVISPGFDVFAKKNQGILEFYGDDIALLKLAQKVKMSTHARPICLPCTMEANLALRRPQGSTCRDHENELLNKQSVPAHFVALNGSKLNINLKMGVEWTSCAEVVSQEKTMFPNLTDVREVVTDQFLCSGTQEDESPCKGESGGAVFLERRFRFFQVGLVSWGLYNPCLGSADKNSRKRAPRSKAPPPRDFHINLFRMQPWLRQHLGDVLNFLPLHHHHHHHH

[1] = biological target: T2, human complement C2 (wild type) (human, UniProt P06681 21-752)
T2 construct: Full-length human C2 (NP_000054) with C-terminal 8x His tag, secreted from Expi293F cells and purified from the supernatant; also called WT; huC2
T2 sequence: T1 sequence with A702V

human C2 F437A = biological target: T3, human C2 F437A (human, UniProt P06681 21-752)
T3 sequence: T1 sequence with F417A, A702V

B1: RF16-226 (antibody, human IgG4 S228P, lambda)
heavy: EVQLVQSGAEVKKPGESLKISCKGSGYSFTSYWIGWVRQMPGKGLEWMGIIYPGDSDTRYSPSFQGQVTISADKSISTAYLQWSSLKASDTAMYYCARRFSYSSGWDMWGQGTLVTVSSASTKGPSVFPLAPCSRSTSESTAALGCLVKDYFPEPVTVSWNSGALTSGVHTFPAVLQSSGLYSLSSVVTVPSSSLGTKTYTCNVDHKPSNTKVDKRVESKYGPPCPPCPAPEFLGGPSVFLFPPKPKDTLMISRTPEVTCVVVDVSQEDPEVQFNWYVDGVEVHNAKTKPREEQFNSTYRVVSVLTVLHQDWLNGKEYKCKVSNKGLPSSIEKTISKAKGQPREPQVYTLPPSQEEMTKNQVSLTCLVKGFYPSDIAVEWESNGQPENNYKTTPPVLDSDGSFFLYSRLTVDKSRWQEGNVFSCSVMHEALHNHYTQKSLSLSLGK
light: SYELTQPPSVSVSPGQTARITCSGDALTSKYVAWYQQKSGLAPLLVIYEDTRRPSGIPAKFSGSSSGSVATLTISGAHGDDEADYYCYSTDASGHQRVFGGGTKLTVLSQPKAAPSVTLFPPSSEELQANKATLVCLISDFYPGAVTVAWKADGSPVKAGVETTKPSKQSNNKYAASSYLSLTPEQWKSHRSYSCQVTHEGSTVEKTVAPTECS
notes: pH-dependent anti-C2 antibody from a phage display library; also called WT
B1 showed a Kd (human C2 V722A) of 95.2 nM, a Kd [1] of 10.1 nM and a Kd (human C2 F437A) of 260 nM.

— patent publication US20220332804A1 (CSL INNOVATION, published 2022)
